Data on 7 molecules can be found in publication PMC7367873, “Dissecting the sequence determinants for dephosphorylation by the catalytic subunits of phosphatases PP1 and PP2A” (Nature Communications, 2020).

In assay [1] the test system is GFP-14-3-3β. Briefly: GFP-14-3-3β co-IP with LC-MS/MS, untreated GFP-14-3-3β versus GFP control (14-3-3 interactome). In kind it is binding, human. The following applies: 3 replicates each.
The subject of assay [2] is GFP-14-3-3β and its binding proteins. The assay is described as follows: GFP-14-3-3β co-IP with LC-MS/MS label-free quantification, untreated versus PP1c-treated. The following applies: 3 replicates each. Details: species or system human.
[3] abbreviates: untreated vs GFP, LFQ intensities.
The mark [4] stands for this setting: PP1 vs untreated, LFQ intensities.

B1: TUBB4A (protein, UniProt P04350 1-444, looked up)
Tubulin beta-4A chain: MREIVHLQAGQCGNQIGAKFWEVISDEHGIDPTGTYHGDSDLQLERINVYYNEATGGNYVPRAVLVDLEPGTMDSVRSGPFGQIFRPDNFVFGQSGAGNNWAKGHYTEGAELVDAVLDVVRKEAESCDCLQGFQLTHSLGGGTGSGMGTLLISKIREEFPDRIMNTFSVVPSPKVSDTVVEPYNATLSVHQLVENTDETYCIDNEALYDICFRTLKLTTPTYGDLNHLVSATMSGVTTCLRFPGQLNADLRKLAVNMVPFPRLHFFMPGFAPLTSRGSQQYRALTVPELTQQMFDAKNMMAACDPRHGRYLTVAAVFRGRMSMKEVDEQMLSVQSKNSSYFVEWIPNNVKTAVCDIPPRGLKMAATFIGNSTAIQELFKRISEQFTAMFRRKAFLHWYTGEGMDEMEFTEAESNMNDLVSEYQQYQDATAEEGEFEEEAEEEVA
On to B1, for which the “Difference (log2), untreated vs GFP” value in assay [1] (setting [3]) is given as -1.261 log2. In assay [2] (setting [4]), the “Difference (log2), PP1 vs untreated” value came to 0.4246 log2.

B2: MAP4K4 (protein, UniProt O95819 2-1239, looked up)
Mitogen-activated protein …: ANDSPAKSLVDIDLSSLRDPAGIFELVEVVGNGTYGQVYKGRHVKTGQLAAIKVMDVTEDEEEEIKLEINMLKKYSHHRNIATYYGAFIKKSPPGHDDQLWLVMEFCGAGSITDLVKNTKGNTLKEDWIAYISREILRGLAHLHIHHVIHRDIKGQNVLLTENAEVKLVDFGVSAQLDRTVGRRNTFIGTPYWMAPEVIACDENPDATYDYRSDLWSCGITAIEMAEGAPPLCDMHPMRALFLIPRNPPPRLKSKKWSKKFFSFIEGCLVKNYMQRPSTEQLLKHPFIRDQPNERQVRIQLKDHIDRTRKKRGEKDETEYEYSGSEEEEEEVPEQEGEPSSIVNVPGESTLRRDFLRLQQENKERSEALRRQQLLQEQQLREQEEYKRQLLAERQKRIEQQKEQRRRLEEQQRREREARRQQEREQRRREQEEKRRLEELERRRKEEEERRRAEEEKRRVEREQEYIRRQLEEEQRHLEVLQQQLLQEQAMLLECRWREMEEHRQAERLQRQLQQEQAYLLSLQHDHRRPHPQHSQQPPPPQQERSKPSFHAPEPKAHYEPADRAREVEDRFRKTNHSSPEAQSKQTGRVLEPPVPSRSESFSNGNSESVHPALQRPAEPQVPVRTTSRSPVLSRRDSPLQGSGQQNSQAGQRNSTSIEPRLLWERVEKLVPRPGSGSSSGSSNSGSQPGSHPGSQSGSGERFRVRSSSKSEGSPSQRLENAVKKPEDKKEVFRPLKPADLTALAKELRAVEDVRPPHKVTDYSSSSEESGTTDEEDDDVEQEGADESTSGPEDTRAASSLNLSNGETESVKTMIVHDDVESEPAMTPSKEGTLIVRQTQSASSTLQKHKSSSSFTPFIDPRLLQISPSSGTTVTSVVGFSCDGMRPEAIRQDPTRKGSVVNVNPTNTRPQSDTPEIRKYKKRFNSEILCAALWGVNLLVGTESGLMLLDRSGQGKVYPLINRRRFQQMDVLEGLNVLVTISGKKDKLRVYYLSWLRNKILHNDPEVEKKQGWTTVGDLEGCVHYKVVKYERIKFLVIALKSSVEVYAWAPKPYHKFMAFKSFGELVHKPLLVDLTVEEGQRLKVIYGSCAGFHAVDVDSGSVYDIYLPTHIQCSIKPHAIIILPNTDGMELLVCYEDEGVYVNTYGRITKDVVLQWGEMPTSVAYIRSNQTMGWGEKAIEIRSVETGHLDGVFMHKRAQRLKFLCERNDKVFFASVRSGGSSQVYFMTLGRTSLLSW
With B2, the “Difference (log2), untreated vs GFP” value in assay [1] (setting [3]) is on record as 0.6698 log2. Moreover, the “Difference (log2), PP1 vs untreated” value in assay [2] (setting [4]) was found to be 0.4439 log2.

B3: ATP5J2 (protein, UniProt P56134 2-94, looked up)
ATP synthase F(0) complex …: ASVGECPAPVPVKDKKLLEVKLGELPSWILMRDFSPSGIFGAFQRGYYRYYNKYINVKKGSISGITMVLACYVLFSYSFSYKHLKHERLRKYH
In the case of B3, the “Difference (log2), untreated vs GFP” value in assay [1] (setting [3]) is -0.05352 log2. Besides, in assay [2] (setting [4]), the “Difference (log2), PP1 vs untreated” value is listed as 0.4378 log2.

B4: CPS1 (protein, UniProt P31327 39-1500, looked up)
Carbamoyl-phosphate synthase …: LSVKAQTAHIVLEDGTKMKGYSFGHPSSVAGEVVFNTGLGGYPEAITDPAYKGQILTMANPIIGNGGAPDTTALDELGLSKYLESNGIKVSGLLVLDYSKDYNHWLATKSLGQWLQEEKVPAIYGVDTRMLTKIIRDKGTMLGKIEFEGQPVDFVDPNKQNLIAEVSTKDVKVYGKGNPTKVVAVDCGIKNNVIRLLVKRGAEVHLVPWNHDFTKMEYDGILIAGGPGNPALAEPLIQNVRKILESDRKEPLFGISTGNLITGLAAGAKTYKMSMANRGQNQPVLNITNKQAFITAQNHGYALDNTLPAGWKPLFVNVNDQTNEGIMHESKPFFAVQFHPEVTPGPIDTEYLFDSFFSLIKKGKATTITSVLPKPALVASRVEVSKVLILGSGGLSIGQAGEFDYSGSQAVKAMKEENVKTVLMNPNIASVQTNEVGLKQADTVYFLPITPQFVTEVIKAEQPDGLILGMGGQTALNCGVELFKRGVLKEYGVKVLGTSVESIMATEDRQLFSDKLNEINEKIAPSFAVESIEDALKAADTIGYPVMIRSAYALGGLGSGICPNRETLMDLSTKAFAMTNQILVEKSVTGWKEIEYEVVRDADDNCVTVCNMENVDAMGVHTGDSVVVAPAQTLSNAEFQMLRRTSINVVRHLGIVGECNIQFALHPTSMEYCIIEVNARLSRSSALASKATGYPLAFIAAKIALGIPLPEIKNVVSGKTSACFEPSLDYMVTKIPRWDLDRFHGTSSRIGSSMKSVGEVMAIGRTFEESFQKALRMCHPSIEGFTPRLPMNKEWPSNLDLRKELSEPSSTRIYAIAKAIDDNMSLDEIEKLTYIDKWFLYKMRDILNMEKTLKGLNSESMTEETLKRAKEIGFSDKQISKCLGLTEAQTRELRLKKNIHPWVKQIDTLAAEYPSVTNYLYVTYNGQEHDVNFDDHGMMVLGCGPYHIGSSVEFDWCAVSSIRTLRQLGKKTVVVNCNPETVSTDFDECDKLYFEELSLERILDIYHQEACGGCIISVGGQIPNNLAVPLYKNGVKIMGTSPLQIDRAEDRSIFSAVLDELKVAQAPWKAVNTLNEALEFAKSVDYPCLLRPSYVLSGSAMNVVFSEDEMKKFLEEATRVSQEHPVVLTKFVEGAREVEMDAVGKDGRVISHAISEHVEDAGVHSGDATLMLPTQTISQGAIEKVKDATRKIAKAFAISGPFNVQFLVKGNDVLVIECNLRASRSFPFVSKTLGVDFIDVATKVMIGENVDEKHLPTLDHPIIPADYVAIKAPMFSWPRLRDADPILRCEMASTGEVACFGEGIHTAFLKAMLSTGFKIPQKGILIGIQQSFRPRFLGVAEQLHNEGFKLFATEATSDWLNANNVPATPVAWPSQEGQNPSLSSIRKLIRDGSIDLVINLPNNNTKFVHDNYVIRRTAVDSGIPLLTNFQVTKLFAEAVQKSRKVDSKSLFHYRQYSAGKAA
For B4, the “Difference (log2), untreated vs GFP” value in assay [1] (setting [3]) was 0.419 log2. The “Difference (log2), PP1 vs untreated” value in assay [2] (setting [4]) was 0.4276 log2.

B5: IMMT (protein, UniProt Q16891 34-758, looked up)
MICOS complex subunit MIC60: STSGSSGLTTGKIAGAGLLFVGGGIGGTILYAKWDSHFRESVEKTIPYSDKLFEMVLGPAAYNVPLPKKSIQSGPLKISSVSEVMKESKQPASQLQKQKGDTPASATAPTEAAQIISAAGDTLSVPAPAVQPEESLKTDHPEIGEGKPTPALSEEASSSSIRERPPEEVAARLAQQEKQEQVKIESLAKSLEDALRQTASVTLQAIAAQNAAVQAVNAHSNILKAAMDNSEIAGEKKSAQWRTVEGALKERRKAVDEAADALLKAKEELEKMKSVIENAKKKEVAGAKPHITAAEGKLHNMIVDLDNVVKKVQAAQSEAKVVSQYHELVVQARDDFKRELDSITPEVLPGWKGMSVSDLADKLSTDDLNSLIAHAHRRIDQLNRELAEQKATEKQHITLALEKQKLEEKRAFDSAVAKALEHHRSEIQAEQDRKIEEVRDAMENEMRTQLRRQAAAHTDHLRDVLRVQEQELKSEFEQNLSEKLSEQELQFRRLSQEQVDNFTLDINTAYARLRGIEQAVQSHAVAEEEARKAHQLWLSVEALKYSMKTSSAETPTIPLGSAVEAIKANCSDNEFTQALTAAIPPESLTRGVYSEETLRARFYAVQKLARRVAMIDETRNSLYQYFLSYLQSLLLFPPQQLKPPPELCPEDINTFKLLSYASYCIEHGDLELAAKFVNQLKGESRRVAQDWLKEARMTLETKQIVEILTAYASAVGIGTTQVQPE
Turning to B5, in assay [1] (setting [3]), the “Difference (log2), untreated vs GFP” value came out at 0.387 log2. Also, the “Difference (log2), PP1 vs untreated” value in assay [2] (setting [4]) is reported as 0.4434 log2.

B6: BAG2 (protein, UniProt O95816 2-211, looked up)
BAG family molecular …: AQAKINAKANEGRFCRSSSMADRSSRLLESLDQLELRVEALREAATAVEQEKEILLEMIHSIQNSQDMRQISDGEREELNLTANRLMGRTLTVEVSVETIRNPQQQESLKHATRIIDEVVNKFLDDLGNAKSHLMSLYSACSSEVPHGPVDQKFQSIVIGCALEDQKKIKRRLETLLRNIENSDKAIKLLEHSKGAGSKTLQQNAESRFN
B6: the “Difference (log2), untreated vs GFP” value in assay [1] (log2 difference, pairwise comparison untreated vs GFP, label-free quantification) was -1.564. Further, in assay [2] (log2 difference, pairwise comparison PP1 vs untreated, label-free quantification), the “Difference (log2), PP1 vs untreated” value is listed as 2.1096.

B7: NFX1 (protein, UniProt Q12986 1-1120, looked up)
Transcriptional repressor …: MAEAPPVSGTFKFNTDAAEFIPQEKKNSGLNCGTQRRLDSNRIGRRNYSSPPPCHLSRQVPYDEISAVHQHSYHPSGSKPKSQQTSFQSSPCNKSPKSHGLQNQPWQKLRNEKHHIRVKKAQSLAEQTSDTAGLESSTRSESGTDLREHSPSESEKEVVGADPRGAKPKKATQFVYSYGRGPKVKGKLKCEWSNRTTPKPEDAGPESTKPVGVFHPDSSEASSRKGVLDGYGARRNEQRRYPQKRPPWEVEGARPRPGRNPPKQEGHRHTNAGHRNNMGPIPKDDLNERPAKSTCDSENLAVINKSSRRVDQEKCTVRRQDPQVVSPFSRGKQNHVLKNVETHTGSLIEQLTTEKYECMVCCELVRVTAPVWSCQSCYHVFHLNCIKKWARSPASQADGQSGWRCPACQNVSAHVPNTYTCFCGKVKNPEWSRNEIPHSCGEVCRKKQPGQDCPHSCNLLCHPGPCPPCPAFMTKTCECGRTRHTVRCGQAVSVHCSNPCENILNCGQHQCAELCHGGQCQPCQIILNQVCYCGSTSRDVLCGTDVGKSDGFGDFSCLKICGKDLKCGNHTCSQVCHPQPCQQCPRLPQLVRCCPCGQTPLSQLLELGSSSRKTCMDPVPSCGKVCGKPLPCGSLDFIHTCEKLCHEGDCGPCSRTSVISCRCSFRTKELPCTSLKSEDATFMCDKRCNKKRLCGRHKCNEICCVDKEHKCPLICGRKLRCGLHRCEEPCHRGNCQTCWQASFDELTCHCGASVIYPPVPCGTRPPECTQTCARVHECDHPVYHSCHSEEKCPPCTFLTQKWCMGKHEFRSNIPCHLVDISCGLPCSATLPCGMHKCQRLCHKGECLVDEPCKQPCTTPRADCGHPCMAPCHTSSPCPVTACKAKVELQCECGRRKEMVICSEASSTYQRIAAISMASKITDMQLGGSVEISKLITKKEVHQARLECDEECSALERKKRLAEAFHISEDSDPFNIRSSGSKFSDSLKEDARKDLKFVSDVEKEMETLVEAVNKGKNSKKSHSFPPMNRDHRRIIHDLAQVYGLESVSYDSEPKRNVVVTAIRGKSVCPPTTLTGVLEREMQARPPPPIPHHRHQSDKNPGSSNLQKITKEPIIDYFDVQD
B7: the “Difference (log2), untreated vs GFP” value in assay [1] (setting [3]) is 0.9482 log2. Also, the “Difference (log2), PP1 vs untreated” value in assay [2] (setting [4]) was determined as 0.3965 log2.
